# Test results from the supplement of paper PMC9732359.
# ± gives the uncertainty stated by the source.
# Assay: protein stability index of a GFP-peptide fusion (yeast GPS) (PSI 1-4); higher = more stable; sorted into four equal gates, so the index is relative within each strain
# Procedure, shortened: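 The protein stability index of a peptide was calculated by multiplying its read frequency in each gate by that gate's number and adding the products. The peptides were tiled 17-residue stretches of yeast proteins, fused downstream of GFP on a Cherry-expressing plasmid and carried in yeast as a pooled library. Mid-log cultures in leucine-free medium were sorted into four equal gates by GFP/Cherry ratio, and each gate's plasmids were PCR-amplified and Illumina-sequenced.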
Sequence,protein stability index (doa10∆),protein stability index (pdr5∆),protein stability index (san1∆),protein stability index (ubr1∆)
LIARRDDESPRFVMPNQ [RRP6],3.27 ± 0.082,3.32 ± 0.07,3.21 ± 0.081,3.21 ± 0.061
LICSIGLHSSEYKLRSL [ECM29],2.03 ± 0.046,2.41 ± 0.05,2.26 ± 0.07,2.56 ± 0.038
LIEILRLRALQLYFQKN [RRI2],1.17 ± 0.049,1.28 ± 0.072,1.26 ± 0.12,1.04 ± 0.076
LIEKEIQPKITELKKKL [SMC1],3.02 ± 0.1,2.91 ± 0.089,2.9 ± 0.11,3.02 ± 0.077
LIENCKKRNMPLQSIPE [SWI1],2.86 ± 0.068,2.86 ± 0.056,3.01 ± 0.051,3.05 ± 0.046
LIEPLPTESYLQYIIHD [BRR2],2.42 ± 0.083,2.96 ± 0.065,2.58 ± 0.096,2.49 ± 0.049
LIESGIGTHHAGLTRSD [BRR2],3.31 ± 0.095,3.5 ± 0.13,2.82 ± 0.1,3.43 ± 0.062
LIIIAANTPVLRKSELE [RPL30],2.2 ± 0.11,2.68 ± 0.14,2.31 ± 0.094,2.77 ± 0.13
LIIKYQKYWESMRIQIL [GAL11],1.49 ± 0.064,1.95 ± 0.076,1.71 ± 0.087,1.65 ± 0.06
LINDSYINDVHLLYPPH [SSN8],3.29 ± 0.058,3.14 ± 0.057,2.96 ± 0.045,3.25 ± 0.053
LINIDTSIANAFRRIMI [RPC40],2.28 ± 0.043,2.83 ± 0.054,3.14 ± 0.046,2.89 ± 0.049
LINLAKTRVGSVTAQVY [RPC82],2.41 ± 0.096,1.66 ± 0.065,1.16 ± 0.18,1.45 ± 0.11
LIQDLLHRLTPKNVKGE [RPN1],3.44 ± 0.25,3.27 ± 0.11,3.51 ± 0.21,3.01 ± 0.14
LIQKLQNSANNNSDDED [IRR1],2.98 ± 0.1,3.08 ± 0.074,3.26 ± 0.05,3.38 ± 0.083
LIQLGVKPLESSAKRSK [SRP72],3.11 ± 0.073,2.97 ± 0.11,2.56 ± 0.12,2.88 ± 0.045
LIQSYSLLDKPDEAIEK [FAS1],2.82 ± 0.087,2.75 ± 0.084,2.14 ± 0.087,2.79 ± 0.082
LIVRAKNHTHNLPGNIT [RRP4],2.77 ± 0.071,2.96 ± 0.049,2.89 ± 0.066,2.94 ± 0.052
LKCAERQLTSMEFSNLY [NUT1],2.06 ± 0.054,1.87 ± 0.034,1.65 ± 0.072,2.17 ± 0.032
LKEPVEDIIKRTSPIDN [NUT2],2.97 ± 0.083,3.09 ± 0.1,2.64 ± 0.1,3.2 ± 0.061
LKHVLQLIFRQQTGLVD [SNU114],1.23 ± 0.075,1.58 ± 0.076,1.68 ± 0.12,1.2 ± 0.049
LKIQFILSTTLDPTDDE [SIN4],2.04 ± 0.1,2.33 ± 0.081,2.12 ± 0.067,2.81 ± 0.099
LKIYKVGDIVDIKANGS [RPL21B],2.18 ± 0.058,1.88 ± 0.05,1.83 ± 0.062,2.08 ± 0.03
LKKDIESLRGILHVRAQ [SRP72],1.9 ± 0.1,2.39 ± 0.12,2.11 ± 0.22,2.07 ± 0.062
LKKFRESLVHSALCILK [BRR2],3.21 ± 0.12,2.1 ± 0.073,2.86 ± 0.078,2.97 ± 0.066
LKKGEQKTQELNAKYQS [ISW2],3.31 ± 0.063,3.22 ± 0.047,3.29 ± 0.039,3.29 ± 0.055
LKKIRAHRGIRHFWGLR [RPS18A],3.03 ± 0.11,2.74 ± 0.078,2.44 ± 0.079,2.62 ± 0.05
LKKQLHVSHEAMREVND [YIL149C/MLP2],2.77 ± 0.066,2.24 ± 0.058,2.91 ± 0.07,2.85 ± 0.076
LKLCVQELEKRMPMDFK [PRE1],3.15 ± 0.19,3.34 ± 0.099,3.18 ± 0.054,3.37 ± 0.085

Sequence,protein stability index (doa10∆),protein stability index (pdr5∆),protein stability index (san1∆),protein stability index (ubr1∆)
LKMMKLIVDTHVQFRLG [PRP8],2.53 ± 0.08,2.21 ± 0.075,2.56 ± 0.059,1.93 ± 0.048
LKRADYTAVDTAKLQMR [RPN14],–,3.33 ± 0.23,2.76 ± 0.1,–
LKRNRIRNARSIRAEAV [POP1],1.71 ± 0.15,2.44 ± 0.1,–,2.59 ± 0.13
LKSESATSQYLKQDLKK [YGL172W/NUP49],2.81 ± 0.079,2.88 ± 0.072,2.9 ± 0.061,2.95 ± 0.079
LKSKVIDSPELLSLIST [RPN7],2.48 ± 0.038,2.63 ± 0.045,2.4 ± 0.049,2.61 ± 0.041
LKSPVLSKLCVPVANQF [QCR7],2.22 ± 0.053,2.45 ± 0.065,1.92 ± 0.053,2.01 ± 0.031
LKTEAANVLDPSLRKLI [BRR2],2.44 ± 0.052,2.61 ± 0.059,2.9 ± 0.064,2.68 ± 0.039
LKWSACTSLMDIIVAIK [IRR1],2.65 ± 0.14,2.72 ± 0.057,2.44 ± 0.16,2.83 ± 0.071
LLAEYDNIYRNLQKIDK [MED4],2.4 ± 0.048,2.69 ± 0.042,2.61 ± 0.05,2.32 ± 0.028
LLAKRLSERKAEKAEIR [RPS6A],3.35 ± 0.092,3.54 ± 0.11,3.18 ± 0.086,3.33 ± 0.084
LLCALDRKDQDDRDHFG [RPB2],3.22 ± 0.096,3.28 ± 0.067,2.71 ± 0.1,3.47 ± 0.05
LLERGRLRKRVTIIPLD [SMC2],2.25 ± 0.06,2.71 ± 0.059,2.26 ± 0.059,2.12 ± 0.057
LLETKLRQQYEIELKKL [SWI1],3.01 ± 0.12,2.96 ± 0.1,3.17 ± 0.069,2.92 ± 0.11
LLFINSSKLVDVYTLPS [YML103C/NUP188],1.97 ± 0.043,2 ± 0.05,1.98 ± 0.055,2.01 ± 0.054
LLFWTDPRNLVNQTGST [YCG1],2.41 ± 0.065,2.66 ± 0.064,2.83 ± 0.055,2.81 ± 0.038
LLGIDATVPSGRPETYI [RPO31],2.71 ± 0.15,2.32 ± 0.15,–,–
LLGKDNEDDALIYGISD [AAR2],3.22 ± 0.12,3.14 ± 0.14,3.11 ± 0.1,2.7 ± 0.14
LLGPTLEDHTPPEDKPN [QCR10],2.5 ± 0.057,2.81 ± 0.064,2.94 ± 0.082,2.94 ± 0.033
LLHSKPSLLLQKDQDGR [NAS6],3.22 ± 0.22,3.33 ± 0.13,–,–
LLIHRKGLTYLHLDYNF [PRP8],1.77 ± 0.043,1.28 ± 0.034,1.32 ± 0.079,1.56 ± 0.048
LLLRCDDRVDKKFVSQI [POP3],3.27 ± 0.11,3.34 ± 0.066,3.03 ± 0.054,3.22 ± 0.042
LLLSPDQWYCIDKLEDL [ITC1],3.06 ± 0.11,3.4 ± 0.11,3.22 ± 0.097,2.48 ± 0.077
LLPTIKRTICKKCHRLL [RPR2],2.32 ± 0.065,2.36 ± 0.054,2.26 ± 0.11,2.34 ± 0.034
LLQLIQSQPQEKFSEKM [ECM29],2.49 ± 0.098,2.02 ± 0.098,2.46 ± 0.093,2.47 ± 0.071
LLRYGGAFTIALAYAGT [RPN2],2.02 ± 0.084,2.27 ± 0.11,1.91 ± 0.12,2.24 ± 0.051
LLSENRSEKSTTNAQTK [SRP54],2.86 ± 0.15,2.84 ± 0.099,2.88 ± 0.09,2.92 ± 0.064
LLSLNSVRSLQKRIENG [SRP68],2.13 ± 0.069,1.65 ± 0.063,2.1 ± 0.091,2.25 ± 0.078
